Measurements taken from US20140079722A1, “EXTRACELLULAR TARGETED DRUG CONJUGATES” (CENTROSE, LLC, priority 2011, published 2014).

Assays:
[1] = system: primary human umbilical vein endothelial cells (HUVEC); experiment: In vitro normal cell cytotoxicity; type: cell-based; details: 72 hrs, conjugates as antibody concentration, read-out: EC50
Description: (§1) In vitro normal cell cytotoxicity. The in vitro cytotoxic activity of M53-PEG24-CEN09-106, PEG24-CEN09-106, M53-PEG24-CEN-319, PEG24-CEN-319, proscillaridin and digitoxin against dysadherin positive primary normal human cells and a dysadherin positive human non-small cell lung carcinoma (NSCLC) cell line were tested and compared. The cells used were primary human renal epithelial cells (HREpC), primary human umbilical vein endothelial cells (HUVEC), primary human umbilical artery endothelial cells (HUAEC), and the A549 NSCLC cells. The primary cells were obtained from PromoCell GmbH, Heidelberg, Germany, and the NSCLC cell line A549 was obtained from ATCC. Primary renal epithelial cells were grown in Renal Epithelial Cell Growth Medium 2 (PromoCell GmbH, Heidelberg, Germany). Primary endothelial cells were grown in Endothelial Cell Growth Medium 2 (PromoCell GmbH, Heidelberg, Germany). The NSCLC cell line was grown in RPMI-1640 (HyClone, Thermo Scientific) supplemented with 10% fetal bovine serum. HREpC, HUVEC, HUAEC, and A549 cells were plated in 384 well plates at 1250, 1875, 2500, and 1250 cells/well (respectively) and allowed to incubate for 24 hrs at 37° C., 5% CO2, and 100% humidity. Various concentrations of conjugates M53-PEG24-CEN09-106 and […] and PEG24-CEN09-106 and […] were added to the wells in a total volume of 5 uL of media and the plates were incubated for an additional 72 hrs. After 72 hrs of exposure to agent, cell viability was evaluated using the Cell Titer-Glo Luminescent Cell Viability Assay (Promega, Madison, Wis.) according to the manufacturer's instructions. Luminescence measurements were performed using a Wallac Victor^2 Model 1420-041 assay plate reader (Perkin Elmer, Gaithersburg, Md.). EC50 values for each test agent were determined using GraphPad Prism 5 software.

[2] = system: primary human umbilical artery endothelial cells (HUAEC); experiment: In vitro normal cell cytotoxicity; type: cell-based; details: HUAEC, 72 hrs; conjugates as antibody concentration; read-out: EC50
Description: as §1

[3] = system: A549 xenograft; experiment: A549 xenograft model (cell implant); type: in vivo, Hsd:Athymic Nude-Foxn1nu mice
Description: Briefly, to establish a non-small-cell lung cancer disease model, 6×10^6 A549 cells in 200 μL, RPMI1640+50% Matrigel HC (BD Biosciences, San Jose, Calif.) were implanted into the left flank of Hsd:Athymic Nude-Foxn1^nu mice (Harlan, Indianapolis, Ind.). Therapy with antibody-drug conjugates was then initiated when the tumor volume in groups of 5 animals averaged ˜300 mm^3. Treatment using vehicle control, 0.1 and 1 mg/kg M53-PEG24-CEN09-106, and 10 mg/kg control M53-PEG24-CEN09-106 (a control conjugate with a drug loading of 7 drugs per antibody where the antibody's target is not on the cell surface but drug and linker and antibody isotype are the same as M53-PEG24-CEN09-106) were all administered i.v. using the schedule of one injection every 7 days with 3 total injected doses (q7d×3). 15 mg/kg paclitaxel dosed at q2d×5 served as a positive control treatment group. Using this schedule, tumor volumes were measured for each group using calibrated vernier calipers and plotted against first day of tumor implant for 54 days post-implant and 40 days post-initial dose, to produce the graph shown in FIG. 3.

[4] = system: Panc-1 xenografts; experiment: Panc-1 subcutaneous xenograft model (tumor fragments); type: in vivo, female HRLN nu/nu mice; details: drug loading of 7; 1, 5, 15 mg/kg iv Q3Dx7 or Q7Dx3
Description: In another study, the Panc-1 subcutaneous xenograft model was used to evaluate antitumor activity of M53-PEG24-CEN09-106 with a drug loading of 7 drugs per antibody. Subcutaneous Panc-1 xenografts were initiated in female HRLN nu/nu mice by implanting 1 mm^3 PANC-1 tumor fragments were implanted subcutaneously into the right flank, tumor growth was monitored and mice bearing tumors of 80-120 mm^3 were selected for the study. Tumor volume was measured for each group 2× per week using calibrated vernier calipers plotted against day of first dose to produce the graph shown in FIG. 7. Among the treatment groups, no toxic effects were observed (toxicity determined as >10% weight loss during study period).

[5] = Pharmacokinetics and serum stability, antibody and drug specific ELISA; type: in vivo, Balb/c mice; details: for serum half-life of the antibody portion / serum half-life of the steroid drug portion: Balb/c mice; for serum half-life of the antibody portion: EDC drug loading of 3; for serum half-life of the steroid drug portion: drug loading of 3; for serum stability half-life of the EDC: from ratio of slopes of serum decay of drug and antibody portions
Description: The steroid drug pharmacokinetics of M53-PEG24-CEN09-106 were measured using the drug specific ELISA described below. The comparison between the two ELISA results (antibody concentrations minus drug concentrations) was used to determine the rate of drug breakdown and thus examine M53-PEG24-CEN09-106 stability.
Serum was isolated from blood samples acquired by retro-orbital blood collection at 1, 2, 4, 8, 16, 26, and 40 days post-injection. […] Plasma concentrations of the steroid drug in M53-PEG24-CEN09-106 were measured as follows. Antigen coated ELISA plates were washed (×3) with PBS pH 7, blocked 30 min with PBS pH 7 containing 1% NFDM (PBS+NFDM), and then washed (×3) with PBS, pH 7. Diluted serum samples and standard curves of M53-PEG24-CEN09-106 were prepared in the above blocking buffer and applied to coated wells, incubated 30 min at RT, and the wells were washed (×3) with PBS, pH 7. Biotinylated 25C2E3 (a monoclonal IgG1 antibody specific for the steroid portion of PEG24-CEN09-106 and conjugated to biotin [Thermo Scientific, PN 21911]) was diluted to 100 ng/mL in PBS+NFDM and added (100 uL) to each well, incubated 30 min at RT, and the wells washed (×3) with PBS, pH 7. PNPP at 1 mg/mL in 1M DEA with 50 mM MgCl2, pH 9.8 was added (100 uL per well), and the absorbance at 405 nm was determined using a Wallac Victor^2 Model 1420-041 assay plate reader (Perkin Elmer, Gaithersburg, Md.) every 5 minutes for a total of 6 reads.
For both ELISAs, absorbance values from known standards were plotted as absorbance over time, generating a linear slope for each concentration. The slopes generated were then plotted against the respective concentrations of the standards, creating a second linear plot. The absorbance values for the unknown serum samples were plotted over time, establishing a slope for unknown sample. The linear estimate from the slope versus concentration plot was then used to extrapolate concentrations for each unknown sample based on their slope.
To determine serum stability of the intact EDC (drug release from the antibody over time) in these samples, the ratio of the slopes of serum decay of the drug portion to the serum decay of the antibody portion were calculated.

B1: M53-PEG24-CEN09-106: Class 1 EDC: antibody M53 conjugated to linker-ready agent PEG24-CEN09-106 (scillarenin, 4-amino-xyloside, PEG24) (conjugate)
heavy: EVQLVESGGGLVQPKGTLKLSCAASGFSFNTHAMNWVRQAPGKSLEWVARTMSKSNNYATYYADSVKDRFIIRADDSQSMLYLQMNNLKTEDTAMYYCVRDDPKRGMDYWGQGTSVTVSSAKTTPPSVYPLAPGSAAQTNSMVTLGCLVKGYFPEPVTVTWNSGSLSSGVHTFPAVLQSDLYTLSSSVTVPSSTWPSETVTCNVAHPASSTKVDKKIE
light: GIVMSQSPSSLAVSVGEKVTMSCKPSQSLLYSRNQKIYLAWYQQKPGQSPKLLIYWASTRESGVPDRFTGSGSGTDFTLIISSVRAEDLAVYYCQQYYNYPLTFGAGTKLELKRADAAPTVSIFPPSSEQLTSGGASVVCFLNNFYPKDINVKWKIDGSERQNGVLNSWTDQDSKDSTYSMSSTLTLTKDEYERHNSYTCEATHKTSTSPIVKSFNR
With B1 the EC50 [1] was 30 nM, the EC50 [2] was 29 nM and the “growth inhibition of the tumor compared to vehicle” value ([3]; drug loading of 8, 0.1 mg/kg i.v. q7dx3, A549 xenograft) was 35%. For the same molecule, the “growth inhibition of the tumor compared to vehicle” value ([3]; drug loading of 8, 1 mg/kg i.v. q7dx3, A549 xenograft) was 65%, the “tumor response compared to vehicle group” value [4] was “tumor reduction in a dose dependent manner” and the “serum half-life of the antibody portion” value ([5]; 1 mg/kg tail vein) was 11.9 days. The “serum half-life of the steroid drug portion” value ([5]; 1 mg/kg tail vein) was 11 days, the “serum stability half-life of the EDC” value ([5]; 1 mg/kg) was 45 days and the “serum half-life of the antibody portion” value ([5]; 10 mg/kg tail vein) was 9.2 days. The “serum half-life of the steroid drug portion” value ([5]; 10 mg/kg tail vein) was 8 days and the “serum stability half-life of the EDC” value ([5]; 10 mg/kg) was 39 days.
